Experimental findings from publication PMC7243271 (Biochemistry, 2019) are described below.

Series [1] deals with Nup358-min (residues 2147–2240 of human Nup358) (human, UniProt P49792 2147-2240). Description: SEC-MALS. (SEC sorts molecules by how far they enter the pores of the column.)
Series [2] concerns the molecule itself. Description: SEC-MALS.

B1: KLC2^TPR (residues 196–480 of mouse kinesin-1 light chain 2 isoform 1) (domain or fragment, UniProt O88448 196-480, looked up)
chain: RLRTLHNLVIQYASQGRYEVAVPLCKQALEDLEKTSGHDHPDVATMLNILALVYRDQNKYKDAAHLLNDALAIREKTLGKDHPAVAATLNNLAVLYGKRGKYKEAEPLCKRALEIREKVLGKFHPDVAKQLSNLALLCQNQGKAEEVEYYYRRALEIYATRLGPDDPNVAKTKNNLASCYLKQGKYQDAETLYKEILTRAHEKEFGSVNGENKPIWMHAEEREESKDKRRDRRPMEYGSWYKACKVDSPTVNTTLRTLGALYRPEGKLEAAHTLEDCASRSRKQG
On to B1, for which the stoichiometry N (usually a count of units in the complex or per binding partner) in series [1] turned out to be 1.

B2: Nup358-KLC2-fusion protein (other, human | mouse, UniProt P49792 2147-2240, looked up)
chain: LDIPLQTPHKLVDTGRAAKLIQRAEEMKSGLKDFKTFLTNDQTKVTEEENKGSGTGAAGASDTTIKPNPENTGPTLEWDNYDLREDALDDSVSSRLRTLHNLVIQYASQGRYEVAVPLCKQALEDLEKTSGHDHPDVATMLNILALVYRDQNKYKDAAHLLNDALAIREKTLGKDHPAVAATLNNLAVLYGKRGKYKEAEPLCKRALEIREKVLGKFHPDVAKQLSNLALLCQNQGKAEEVEYYYRRALEIYATRLGPDDPNVAKTKNNLASCYLKQGKYQDAETLYKEILTRAHEKEFGSVNGENKPIWMHAEEREESKDKRRDRRPMEYGSWYKACKVDSPTVNTTLRTLGALYRPEGKLEAAHTLEDCASRSRKQG
Consider B2, for which, in series [2], the “stoichiometry N” value was determined as 2.
